This is an account of results in patent US20140087995A1 (published 2014).

Numbered stars: 1 amine (or outer) side, 2 acyl side, 3 side chain; on linkers, the order of the positions; unused ones are H or OH. Bridge positions count the residues as written; N and C are the ends. Side chains are listed from the residue outwards. Ends that are not written are not given here. * marks the point of attachment. C20 diacid = O=C(O)CCCCCCCCCCCCCCCCCCC(=O)*; γGlu = O=C(O)[C@H](CCC(=O)[*:2])N[*:1]; AEEA = NCCOCCOCC(=O)O

B1: N^ε1-[2-[2-[2-[[(4S)-4-carboxy-4-(19-carboxynonadecanoylamino)butanoyl]amino]ethoxy]ethoxy]acetyl]-[Arg14,Arg17,Pro21,Pro27]-h-amylin (peptide)
peptide: K([AEEA-γGlu-C20 diacid])CNTATCATQRLARFLRHSSPNFGAIPSSTNVGSNTY-NH2
modifications: disulfide 2-7; N-terminus assumed
SMILES: CC[C@H](C)[C@H](NC(=O)[C@H](C)NC(=O)CNC(=O)[C@H](Cc1ccccc1)NC(=O)[C@H](CC(N)=O)NC(=O)[C@@H]1CCCN1C(=O)[C@H](CO)NC(=O)[C@H](CO)NC(=O)[C@H](Cc1c[nH]cn1)NC(=O)[C@H](CCCNC(=N)N)NC(=O)[C@H](CC(C)C)NC(=O)[C@H](Cc1ccccc1)NC(=O)[C@H](CCCNC(=N)N)NC(=O)[C@H](C)NC(=O)[C@H](CC(C)C)NC(=O)[C@H](CCCNC(=N)N)NC(=O)[C@H](CCC(N)=O)NC(=O)[C@@H](NC(=O)[C@H](C)NC(=O)[C@@H]1CSSC[C@H](NC(=O)[C@@H](N)CCCCNC(=O)COCCOCCNC(=O)CC[C@H](NC(=O)CCCCCCCCCCCCCCCCCCC(=O)O)C(=O)O)C(=O)N[C@@H](CC(N)=O)C(=O)N[C@@H]([C@@H](C)O)C(=O)N[C@@H](C)C(=O)N[C@@H]([C@@H](C)O)C(=O)N1)[C@@H](C)O)C(=O)N1CCC[C@H]1C(=O)N[C@@H](CO)C(=O)N[C@@H](CO)C(=O)N[C@H](C(=O)N[C@@H](CC(N)=O)C(=O)N[C@H](C(=O)NCC(=O)N[C@@H](CO)C(=O)N[C@@H](CC(N)=O)C(=O)N[C@H](C(=O)N[C@@H](Cc1ccc(O)cc1)C(N)=O)[C@@H](C)O)C(C)C)[C@@H](C)O
notes: also called compound 82
B2: N^ε1-[2-[2-[2-[[(4S)-4-carboxy-4-(19-carboxynonadecanoylamino)butanoyl]amino]ethoxy]ethoxy]acetyl]-[Arg17,Pro21,Pro27,His34]-h-amylin (peptide)
peptide: K([AEEA-γGlu-C20 diacid])CNTATCATQRLANFLRHSSPNFGAIPSSTNVGHNTY-NH2
modifications: disulfide 2-7; N-terminus assumed
SMILES: CC[C@H](C)[C@H](NC(=O)[C@H](C)NC(=O)CNC(=O)[C@H](Cc1ccccc1)NC(=O)[C@H](CC(N)=O)NC(=O)[C@@H]1CCCN1C(=O)[C@H](CO)NC(=O)[C@H](CO)NC(=O)[C@H](Cc1c[nH]cn1)NC(=O)[C@H](CCCNC(=N)N)NC(=O)[C@H](CC(C)C)NC(=O)[C@H](Cc1ccccc1)NC(=O)[C@H](CC(N)=O)NC(=O)[C@H](C)NC(=O)[C@H](CC(C)C)NC(=O)[C@H](CCCNC(=N)N)NC(=O)[C@H](CCC(N)=O)NC(=O)[C@@H](NC(=O)[C@H](C)NC(=O)[C@@H]1CSSC[C@H](NC(=O)[C@@H](N)CCCCNC(=O)COCCOCCNC(=O)CC[C@H](NC(=O)CCCCCCCCCCCCCCCCCCC(=O)O)C(=O)O)C(=O)N[C@@H](CC(N)=O)C(=O)N[C@@H]([C@@H](C)O)C(=O)N[C@@H](C)C(=O)N[C@@H]([C@@H](C)O)C(=O)N1)[C@@H](C)O)C(=O)N1CCC[C@H]1C(=O)N[C@@H](CO)C(=O)N[C@@H](CO)C(=O)N[C@H](C(=O)N[C@@H](CC(N)=O)C(=O)N[C@H](C(=O)NCC(=O)N[C@@H](Cc1c[nH]cn1)C(=O)N[C@@H](CC(N)=O)C(=O)N[C@H](C(=O)N[C@@H](Cc1ccc(O)cc1)C(N)=O)[C@@H](C)O)C(C)C)[C@@H](C)O
notes: also called compound 76
B3: N^ε1-[2-[2-[2-[[(4S)-4-carboxy-4-(19-carboxynonadecanoylamino)butanoyl]amino]ethoxy]ethoxy]acetyl]-[Arg17,Pro21,Pro27,Pro31,His35]-h-amylin (peptide)
peptide: K([AEEA-γGlu-C20 diacid])CNTATCATQRLANFLRHSSPNFGAIPSSTPVGSHTY-NH2
modifications: disulfide 2-7; N-terminus assumed
SMILES: CC[C@H](C)[C@H](NC(=O)[C@H](C)NC(=O)CNC(=O)[C@H](Cc1ccccc1)NC(=O)[C@H](CC(N)=O)NC(=O)[C@@H]1CCCN1C(=O)[C@H](CO)NC(=O)[C@H](CO)NC(=O)[C@H](Cc1c[nH]cn1)NC(=O)[C@H](CCCNC(=N)N)NC(=O)[C@H](CC(C)C)NC(=O)[C@H](Cc1ccccc1)NC(=O)[C@H](CC(N)=O)NC(=O)[C@H](C)NC(=O)[C@H](CC(C)C)NC(=O)[C@H](CCCNC(=N)N)NC(=O)[C@H](CCC(N)=O)NC(=O)[C@@H](NC(=O)[C@H](C)NC(=O)[C@@H]1CSSC[C@H](NC(=O)[C@@H](N)CCCCNC(=O)COCCOCCNC(=O)CC[C@H](NC(=O)CCCCCCCCCCCCCCCCCCC(=O)O)C(=O)O)C(=O)N[C@@H](CC(N)=O)C(=O)N[C@@H]([C@@H](C)O)C(=O)N[C@@H](C)C(=O)N[C@@H]([C@@H](C)O)C(=O)N1)[C@@H](C)O)C(=O)N1CCC[C@H]1C(=O)N[C@@H](CO)C(=O)N[C@@H](CO)C(=O)N[C@H](C(=O)N1CCC[C@H]1C(=O)N[C@H](C(=O)NCC(=O)N[C@@H](CO)C(=O)N[C@@H](Cc1c[nH]cn1)C(=O)N[C@H](C(=O)N[C@@H](Cc1ccc(O)cc1)C(N)=O)[C@@H](C)O)C(C)C)[C@@H](C)O
notes: also called compound 57
B4: N^ε1-[2-[2-[2-[[(4S)-4-carboxy-4-(19-carboxynonadecanoylamino)butanoyl]amino]ethoxy]ethoxy]acetyl]-[Arg17,Pro21,Pro27,Pro28,Pro34]-h-amylin (peptide)
peptide: K([AEEA-γGlu-C20 diacid])CNTATCATQRLANFLRHSSPNFGAIPPSTNVGPNTY-NH2
modifications: disulfide 2-7; N-terminus assumed
SMILES: CC[C@H](C)[C@H](NC(=O)[C@H](C)NC(=O)CNC(=O)[C@H](Cc1ccccc1)NC(=O)[C@H](CC(N)=O)NC(=O)[C@@H]1CCCN1C(=O)[C@H](CO)NC(=O)[C@H](CO)NC(=O)[C@H](Cc1c[nH]cn1)NC(=O)[C@H](CCCNC(=N)N)NC(=O)[C@H](CC(C)C)NC(=O)[C@H](Cc1ccccc1)NC(=O)[C@H](CC(N)=O)NC(=O)[C@H](C)NC(=O)[C@H](CC(C)C)NC(=O)[C@H](CCCNC(=N)N)NC(=O)[C@H](CCC(N)=O)NC(=O)[C@@H](NC(=O)[C@H](C)NC(=O)[C@@H]1CSSC[C@H](NC(=O)[C@@H](N)CCCCNC(=O)COCCOCCNC(=O)CC[C@H](NC(=O)CCCCCCCCCCCCCCCCCCC(=O)O)C(=O)O)C(=O)N[C@@H](CC(N)=O)C(=O)N[C@@H]([C@@H](C)O)C(=O)N[C@@H](C)C(=O)N[C@@H]([C@@H](C)O)C(=O)N1)[C@@H](C)O)C(=O)N1CCC[C@H]1C(=O)N1CCC[C@H]1C(=O)N[C@@H](CO)C(=O)N[C@H](C(=O)N[C@@H](CC(N)=O)C(=O)N[C@H](C(=O)NCC(=O)N1CCC[C@H]1C(=O)N[C@@H](CC(N)=O)C(=O)N[C@H](C(=O)N[C@@H](Cc1ccc(O)cc1)C(N)=O)[C@@H](C)O)C(C)C)[C@@H](C)O
notes: also called compound 55
B5: N^ε1-[2-[2-[2-[[(4S)-4-carboxy-4-(19-carboxynonadecanoylamino)butanoyl]amino]ethoxy]ethoxy]acetyl]-[Arg17,Pro21,Pro27,Glu35]-h-amylin (peptide)
peptide: K([AEEA-γGlu-C20 diacid])CNTATCATQRLANFLRHSSPNFGAIPSSTNVGSETY-NH2
modifications: disulfide 2-7; N-terminus assumed
SMILES: CC[C@H](C)[C@H](NC(=O)[C@H](C)NC(=O)CNC(=O)[C@H](Cc1ccccc1)NC(=O)[C@H](CC(N)=O)NC(=O)[C@@H]1CCCN1C(=O)[C@H](CO)NC(=O)[C@H](CO)NC(=O)[C@H](Cc1c[nH]cn1)NC(=O)[C@H](CCCNC(=N)N)NC(=O)[C@H](CC(C)C)NC(=O)[C@H](Cc1ccccc1)NC(=O)[C@H](CC(N)=O)NC(=O)[C@H](C)NC(=O)[C@H](CC(C)C)NC(=O)[C@H](CCCNC(=N)N)NC(=O)[C@H](CCC(N)=O)NC(=O)[C@@H](NC(=O)[C@H](C)NC(=O)[C@@H]1CSSC[C@H](NC(=O)[C@@H](N)CCCCNC(=O)COCCOCCNC(=O)CC[C@H](NC(=O)CCCCCCCCCCCCCCCCCCC(=O)O)C(=O)O)C(=O)N[C@@H](CC(N)=O)C(=O)N[C@@H]([C@@H](C)O)C(=O)N[C@@H](C)C(=O)N[C@@H]([C@@H](C)O)C(=O)N1)[C@@H](C)O)C(=O)N1CCC[C@H]1C(=O)N[C@@H](CO)C(=O)N[C@@H](CO)C(=O)N[C@H](C(=O)N[C@@H](CC(N)=O)C(=O)N[C@H](C(=O)NCC(=O)N[C@@H](CO)C(=O)N[C@@H](CCC(=O)O)C(=O)N[C@H](C(=O)N[C@@H](Cc1ccc(O)cc1)C(N)=O)[C@@H](C)O)C(C)C)[C@@H](C)O
notes: also called compound 26
B6: N^ε1-[2-[2-[2-[[(4S)-4-carboxy-4-(19-carboxynonadecanoylamino)butanoyl]amino]ethoxy]ethoxy]acetyl]-[Arg17,Pro21,Pro27,Arg34]-h-amylin (peptide)
peptide: K([AEEA-γGlu-C20 diacid])CNTATCATQRLANFLRHSSPNFGAIPSSTNVGRNTY-NH2
modifications: disulfide 2-7; N-terminus assumed
SMILES: CC[C@H](C)[C@H](NC(=O)[C@H](C)NC(=O)CNC(=O)[C@H](Cc1ccccc1)NC(=O)[C@H](CC(N)=O)NC(=O)[C@@H]1CCCN1C(=O)[C@H](CO)NC(=O)[C@H](CO)NC(=O)[C@H](Cc1c[nH]cn1)NC(=O)[C@H](CCCNC(=N)N)NC(=O)[C@H](CC(C)C)NC(=O)[C@H](Cc1ccccc1)NC(=O)[C@H](CC(N)=O)NC(=O)[C@H](C)NC(=O)[C@H](CC(C)C)NC(=O)[C@H](CCCNC(=N)N)NC(=O)[C@H](CCC(N)=O)NC(=O)[C@@H](NC(=O)[C@H](C)NC(=O)[C@@H]1CSSC[C@H](NC(=O)[C@@H](N)CCCCNC(=O)COCCOCCNC(=O)CC[C@H](NC(=O)CCCCCCCCCCCCCCCCCCC(=O)O)C(=O)O)C(=O)N[C@@H](CC(N)=O)C(=O)N[C@@H]([C@@H](C)O)C(=O)N[C@@H](C)C(=O)N[C@@H]([C@@H](C)O)C(=O)N1)[C@@H](C)O)C(=O)N1CCC[C@H]1C(=O)N[C@@H](CO)C(=O)N[C@@H](CO)C(=O)N[C@H](C(=O)N[C@@H](CC(N)=O)C(=O)N[C@H](C(=O)NCC(=O)N[C@@H](CCCNC(=N)N)C(=O)N[C@@H](CC(N)=O)C(=O)N[C@H](C(=O)N[C@@H](Cc1ccc(O)cc1)C(N)=O)[C@@H](C)O)C(C)C)[C@@H](C)O
notes: also called compound 78

The target in this assay is T1, human amylin 3(a) receptor (human calcitonin receptor co-expressed with RAMP-3) (human, UniProt P30988 25-474; O60896 24-148, limits assumed).
T1 sequence (looked up) 1: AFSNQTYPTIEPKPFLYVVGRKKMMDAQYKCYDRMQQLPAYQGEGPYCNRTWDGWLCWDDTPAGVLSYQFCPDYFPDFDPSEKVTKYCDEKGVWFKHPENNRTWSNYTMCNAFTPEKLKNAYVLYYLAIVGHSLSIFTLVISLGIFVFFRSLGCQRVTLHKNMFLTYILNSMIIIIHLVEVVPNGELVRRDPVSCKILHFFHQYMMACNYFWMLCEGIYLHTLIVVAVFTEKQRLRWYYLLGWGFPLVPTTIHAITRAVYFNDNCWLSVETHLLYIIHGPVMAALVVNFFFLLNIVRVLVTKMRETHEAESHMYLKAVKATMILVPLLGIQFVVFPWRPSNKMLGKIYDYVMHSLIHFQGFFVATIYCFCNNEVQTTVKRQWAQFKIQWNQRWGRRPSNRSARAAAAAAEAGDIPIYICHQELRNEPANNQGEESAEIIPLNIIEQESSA
T1 sequence (looked up) 2: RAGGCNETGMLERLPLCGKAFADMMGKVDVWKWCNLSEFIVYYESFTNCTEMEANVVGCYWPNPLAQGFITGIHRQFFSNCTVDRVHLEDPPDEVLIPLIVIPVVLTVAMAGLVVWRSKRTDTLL
Description: cell-based or functional assay.
In the case of B1, the “Ratio hCT/hAmylin funct. (hCTR EC50 over hAmylin-R EC50)” value was determined as 59.2 and the “hAmylin-R funct. EC50 (pM)” value came out at 215 pM.
For the molecule B2, the “Ratio hCT/hAmylin funct. (hCTR EC50 over hAmylin-R EC50)” value came out at 24.8 and the “hAmylin-R funct. EC50 (pM)” value is 297 pM.
The matching figures for B3: 35 and 89 pM.
The matching figures for B4: 10.8 and 68 pM.
The matching figures for B5: 29.9 and 212 pM.
For the molecule B6, the “Ratio hCT/hAmylin funct. (hCTR EC50 over hAmylin-R EC50)” value turned out to be 25.8 and the “hAmylin-R funct. EC50 (pM)” value came to 316 pM.
